Results from the supplement of paper PMC7877785.
± gives the uncertainty stated by the source.

Assay: self-splicing fitness, log relative to wild type (ln ratio); higher = more splicing; Tetrahymena group I intron in knt gene, E. coli kanamycin selection, DiMSum; sequences stand for … in CUCUCU…GGAGGGAAAAGUUAUCAGGCAUGCACCUGGUAGCUAGUCUUUAAACCAAUAGAUUGCAUCGGUUUAAAAGGCAAGACCGUCAAAUUGCGGGAAAGGGGUCAACAGCCGUUCAGUACCAAGUCUCAGGGGAAACUUUGAGAUGGCCUUGCAAAGGGUAUGGUAAUAAGCUGACGGACAUGGUCCUAACCACGCAGCCAAGUCCUAAGUCAACAGAUCUUCUGUUGAUAUGGAUGCAGUUCACAGACUAAAUGUCGGUCGGGGAAGAUGUAUUCUUCUCAUAAGAUAUAGUCGGACCUCUCCUUAAUGGGAGCUAGCGGAUGAAGUGAUGCAACACUGGAGCCGCUGGGAACUAAUUUGUAUGCGAAAGUAUAUUGAUUAGUUUUGGAGUACUCGUGGUCG
In short: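 Library with all eight P1ex-region intron nucleotides randomised, intron inside the knt kanamycin-resistance gene on pET-22b(+), in E. coli BL21(DE3). Cells grew overnight at 37°C or 30°C on LB agar with or without 25 μg/mL kanamycin (plus 100 μg/mL carbenicillin, 50 μM IPTG, 0.2% rhamnose), in six replicate transformations. Pooled colonies were amplicon-sequenced on Illumina HiSeq 2500. DiMSum fitness is the error-weighted combination of wild-type-normalised replicate fold changes, kanamycin versus none.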

Row | Sequence | self-splicing fitness (ln) (30 °C) | self-splicing fitness (ln) (37 °C)
1 | UACCAGCAAUAUUACGCUUC | -3.17 ± 0.23 | -2.3 ± 0.24
2 | UACCAGCAAUAUUACGGAAA | -0.915 ± 0.073 | -0.747 ± 0.077
3 | UACCAGCAAUAUUACGGAGG | -2.34 ± 0.12 | -0.914 ± 0.12
4 | UACCAGCAAUAUUACGGCAA | -0.203 ± 0.067 | 0.462 ± 0.094
5 | UACCAGCAAUAUUACGGCAC | -2.09 ± 0.066 | -1.05 ± 0.067
6 | UACCAGCAAUAUUACGGGAG | -1.64 ± 0.061 | -1.01 ± 0.071
7 | UACCAGCAAUAUUACGGUAA | -1.77 ± 0.076 | -0.857 ± 0.074
8 | UACCAGCAAUAUUACGGUAC | -3.72 ± 0.22 | -2.04 ± 0.16
9 | UACCAGCAAUAUUACGGUGG | -3.17 ± 0.11 | -1.87 ± 0.087
10 | UACCAGCAAUAUUACGUAGU | -2.96 ± 0.099 | -1.65 ± 0.1
11 | UACCAGCAAUAUUACGUAUU | -2.16 ± 0.1 | -2.6 ± 0.18
12 | UACCAGCAAUAUUACGUCGC | -2.97 ± 0.17 | -1.88 ± 0.2
13 | UACCAGCAAUAUUACGUGCU | -4.3 ± 0.19 | -2.93 ± 0.17
14 | UACCAGCAAUAUUACGUUGA | -1.61 ± 0.049 | -0.796 ± 0.062
15 | UACCAGCAAUAUUACGUUGG | -3.21 ± 0.12 | -2.85 ± 0.14
16 | UACGAGCAAUAUUACGAAAG | -2.75 ± 0.42 | -1.29 ± 0.45
17 | UACGAGCAAUAUUACGAACU | -3.46 ± 0.48 | -2.4 ± 0.24
18 | UACGAGCAAUAUUACGACGC | -3 ± 0.27 | -2.09 ± 0.35
19 | UACGAGCAAUAUUACGACUC | -2.51 ± 0.21 | -2.31 ± 0.36
20 | UACGAGCAAUAUUACGAGCA | -2.48 ± 0.16 | -0.109 ± 0.12
21 | UACGAGCAAUAUUACGAGGA | -3.51 ± 0.26 | -2.48 ± 0.22
22 | UACGAGCAAUAUUACGAUUC | -3.01 ± 0.28 | -2.83 ± 0.3
23 | UACGAGCAAUAUUACGCCAG | -3.79 ± 0.3 | -2.88 ± 0.3
24 | UACGAGCAAUAUUACGCCCA | -2.24 ± 0.27 | -1.02 ± 0.29

Row | Sequence | self-splicing fitness (ln) (30 °C) | self-splicing fitness (ln) (37 °C)
25 | UACGAGCAAUAUUACGCCGU | -2.69 ± 0.46 | -2.21 ± 0.29
26 | UACGAGCAAUAUUACGCGCU |  | -3.38 ± 0.31
27 | UACGAGCAAUAUUACGCUCU | -1.85 ± 0.21 | 
28 | UACGAGCAAUAUUACGGGAU | -2.49 ± 0.14 | -2.74 ± 0.27
29 | UACGAGCAAUAUUACGUAUC | -2.79 ± 0.16 | -2.99 ± 0.27
30 | UACGAGCAAUAUUACGUCUC | -3.24 ± 0.29 | -2.56 ± 0.4
31 | UACGAGCAAUAUUACGUCUU | -3.95 ± 0.33 | -3.41 ± 0.24
32 | UACUAGCAAUAUUACGACAA | -0.443 ± 0.12 | -0.256 ± 0.11
33 | UACUAGCAAUAUUACGACAU | -1.645 ± 0.014 | -0.715 ± 0.033
34 | UACUAGCAAUAUUACGAGAG | -2.94 ± 0.13 | -2.43 ± 0.18
35 | UACUAGCAAUAUUACGAGGA | -3.18 ± 0.2 | -1.54 ± 0.13
36 | UACUAGCAAUAUUACGCCAG | -0.0426 ± 0.17 | -1.03 ± 0.29
37 | UACUAGCAAUAUUACGCCCU | -0.435 ± 0.14 | -0.784 ± 0.15
38 | UACUAGCAAUAUUACGCGAA | -1.97 ± 0.2 | -1.18 ± 0.14
39 | UACUAGCAAUAUUACGCGCU | -3.19 ± 0.18 | -1.8 ± 0.15
40 | UACUAGCAAUAUUACGCUGC |  | -3.01 ± 0.43
41 | UACUAGCAAUAUUACGCUGU | -4.54 ± 0.28 | -3.27 ± 0.33
42 | UACUAGCAAUAUUACGGAAG | -3.07 ± 0.26 | -2.91 ± 0.43
43 | UACUAGCAAUAUUACGGACA | -0.57 ± 0.13 | -0.47 ± 0.16
44 | UACUAGCAAUAUUACGGAGC | -1.89 ± 0.25 | -2.56 ± 0.3
45 | UACUAGCAAUAUUACGGCCA | -0.179 ± 0.15 | 0.376 ± 0.16
46 | UACUAGCAAUAUUACGGGAC | -3.54 ± 0.17 | -2.72 ± 0.16
47 | UACUAGCAAUAUUACGGGGU | -4.05 ± 0.19 | -2.71 ± 0.2
48 | UACUAGCAAUAUUACGGUAG | -1.92 ± 0.11 | -1.09 ± 0.12

Row | Sequence | self-splicing fitness (ln) (30 °C) | self-splicing fitness (ln) (37 °C)
49 | UACUAGCAAUAUUACGUACU | -2.51 ± 0.19 | -0.347 ± 0.13
50 | UACUAGCAAUAUUACGUAGC | -2.83 ± 0.17 | -2.19 ± 0.27
51 | UACUAGCAAUAUUACGUCAA | -1.32 ± 0.21 | -1.25 ± 0.17
52 | UACUAGCAAUAUUACGUCGG | -2.29 ± 0.15 | -2.18 ± 0.18
53 | UACUAGCAAUAUUACGUCUA | -0.655 ± 0.12 | -0.565 ± 0.11
54 | UACUAGCAAUAUUACGUGAU | -3.07 ± 0.11 | -1.17 ± 0.12
55 | UACUAGCAAUAUUACGUGUG | -1.37 ± 0.067 | -0.828 ± 0.072
56 | UACUAGCAAUAUUACGUUUU | -3.49 ± 0.19 | -1.82 ± 0.15
57 | UAGAAGCAAUAUUACGAAAA | -2.69 ± 0.2 | -2.02 ± 0.17
58 | UAGAAGCAAUAUUACGAACU | -1.79 ± 0.14 | 0.0205 ± 0.13
59 | UAGAAGCAAUAUUACGAAGA | -1.77 ± 0.18 | -0.969 ± 0.17
60 | UAGAAGCAAUAUUACGAGUU |  | -2.07 ± 0.33
61 | UAGAAGCAAUAUUACGAUAC | -2.87 ± 0.32 | -2.46 ± 0.27
62 | UAGAAGCAAUAUUACGAUCG | 0.151 ± 0.093 | 0.149 ± 0.11
63 | UAGAAGCAAUAUUACGAUGA | -0.692 ± 0.13 | -0.446 ± 0.1
64 | UAGAAGCAAUAUUACGAUUC | -2.82 ± 0.17 | -2.06 ± 0.21
65 | UAGAAGCAAUAUUACGAUUU | -0.745 ± 0.067 | -1.11 ± 0.095
66 | UAGAAGCAAUAUUACGCACU | -0.642 ± 0.15 | -0.846 ± 0.17
67 | UAGAAGCAAUAUUACGCAUG | -1.12 ± 0.1 | 0.583 ± 0.12
68 | UAGAAGCAAUAUUACGCCAG | -1.3 ± 0.16 | -0.617 ± 0.21
69 | UAGAAGCAAUAUUACGCCGA | -1.47 ± 0.32 | -1 ± 0.25
70 | UAGAAGCAAUAUUACGGCUA | -0.274 ± 0.12 | -0.13 ± 0.16
71 | UAGAAGCAAUAUUACGGUUG | -1.79 ± 0.089 | -0.948 ± 0.11
72 | UAGAAGCAAUAUUACGUAUC | -3.43 ± 0.28 | -2.01 ± 0.15

Row | Sequence | self-splicing fitness (ln) (30 °C) | self-splicing fitness (ln) (37 °C)
73 | UAGAAGCAAUAUUACGUCUA | -1.81 ± 0.16 | -0.539 ± 0.14
74 | UAGAAGCAAUAUUACGUGGC | -3.12 ± 0.21 | -3.09 ± 0.25
75 | UAGAAGCAAUAUUACGUUCG | -0.157 ± 0.067 | 0.264 ± 0.088
76 | UAGAAGCAAUAUUACGUUUC | -2.28 ± 0.16 | -0.293 ± 0.17
77 | UAGCAGCAAUAUUACGAACG | -0.486 ± 0.06 | 0.327 ± 0.085
78 | UAGCAGCAAUAUUACGAGAC | -1.84 ± 0.24 | -3.06 ± 0.32
79 | UAGCAGCAAUAUUACGAUUA | -0.00343 ± 0.049 | -0.0327 ± 0.066
80 | UAGCAGCAAUAUUACGCAAC | -2.32 ± 0.16 | -2.24 ± 0.22
81 | UAGCAGCAAUAUUACGCCUG | -1.79 ± 0.11 | -0.602 ± 0.13
82 | UAGCAGCAAUAUUACGCGAG | -1.83 ± 0.097 | -0.971 ± 0.11
83 | UAGCAGCAAUAUUACGCGUA | -1.2 ± 0.1 | 0.478 ± 0.1
84 | UAGCAGCAAUAUUACGCGUC | -3.43 ± 0.2 | -2.87 ± 0.22
85 | UAGCAGCAAUAUUACGCUUG | -2.3 ± 0.18 | -0.988 ± 0.19
86 | UAGCAGCAAUAUUACGGCGG | -0.483 ± 0.084 | -0.353 ± 0.13
87 | UAGCAGCAAUAUUACGGCUC | -0.698 ± 0.094 | -0.839 ± 0.12
88 | UAGCAGCAAUAUUACGGGAC | -4.55 ± 0.31 | -2.75 ± 0.26
89 | UAGCAGCAAUAUUACGGGAG | -2.58 ± 0.099 | -2.11 ± 0.11
90 | UAGCAGCAAUAUUACGGUAU | -2.97 ± 0.092 | -2.41 ± 0.094
91 | UAGCAGCAAUAUUACGGUCG | 0.0447 ± 0.066 | 0.482 ± 0.094
92 | UAGCAGCAAUAUUACGGUCU | -1.22 ± 0.074 | -1.24 ± 0.086
93 | UAGCAGCAAUAUUACGGUUU | -0.986 ± 0.051 | -0.354 ± 0.067
94 | UAGCAGCAAUAUUACGUAAG | -1.91 ± 0.078 | -0.435 ± 0.091
95 | UAGCAGCAAUAUUACGUAGA | -2.62 ± 0.072 | -1.11 ± 0.079
96 | UAGCAGCAAUAUUACGUGCU | -1.12 ± 0.12 | -1.9 ± 0.16
